Measurements reported in patent publication US20240066131A1 (Protagonist Therapeutics, Inc., priority 2020, published 2024).
Starred links: 1 amine or outer side, 2 acyl side, 3 side chain; linkers in the order of their positions; H or OH if unused. Non-standard residues stand in square brackets, D forms with d. Groups on a side chain read outwards from the residue. *: point of attachment. ButanoicP = (R)-4-(pyrrolidin-2-yl)butanoic acid, O=C(CCC[C@@H]1CCCN1[*:1])[*:2]; C18 diacid = O=C(O)CCCCCCCCCCCCCCCCC(=O)*; Dip = N[C@H](C(=O)O)C(c1ccccc1)c1ccccc1; Palmitoyl = CCCCCCCCCCCCCCCC(=O)*; NMeF = CN[C@@H](Cc1ccccc1)C(=O)O; β3hF = N[C@H](CC(=O)O)Cc1ccccc1; (n-hexyl)Gly = n-hexyl glycine; Tle = CC(C)(C)[C@H](N)C(=O)O; Isovaleryl = CC(C)CC(=O)*; (Me)Leu = methyl-leucine; AEEA = NCCOCCOCC(=O)O; Ahx = NCCCCCC(=O)O

T1: human ferroportin (SLC40A1) fused in frame with GFP, stably expressed in HEK293 cells (human, UniProt Q9NP59 1-571)
T1 sequence (looked up): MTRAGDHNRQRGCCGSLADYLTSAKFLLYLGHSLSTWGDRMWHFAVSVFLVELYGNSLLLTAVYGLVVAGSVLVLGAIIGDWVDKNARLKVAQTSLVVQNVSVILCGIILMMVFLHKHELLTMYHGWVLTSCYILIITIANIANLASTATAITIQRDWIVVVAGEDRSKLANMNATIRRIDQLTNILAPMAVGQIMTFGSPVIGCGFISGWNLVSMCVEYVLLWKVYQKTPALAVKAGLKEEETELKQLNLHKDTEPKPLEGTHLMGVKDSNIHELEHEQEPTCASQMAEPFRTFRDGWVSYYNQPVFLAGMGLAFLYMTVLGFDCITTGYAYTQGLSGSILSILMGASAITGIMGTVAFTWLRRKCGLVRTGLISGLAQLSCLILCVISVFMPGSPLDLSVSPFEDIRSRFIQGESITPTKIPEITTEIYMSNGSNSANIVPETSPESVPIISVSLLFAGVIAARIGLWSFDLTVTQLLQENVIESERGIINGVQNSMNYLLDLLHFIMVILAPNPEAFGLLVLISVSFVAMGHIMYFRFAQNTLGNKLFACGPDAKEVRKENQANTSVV

B1: Isovaleric Acid-L-T-H-[Dpa]-P-A-I-[Lys(Ahx_Palm)]-[(Me)Phe]-NH2 (peptide)
peptide: Isovaleryl-LTH[Dip]PAIK([Ahx-Palmitoyl])[NMeF]-NH2
SMILES: CCCCCCCCCCCCCCCC(=O)NCCCCCC(=O)NCCCC[C@H](NC(=O)[C@@H](NC(=O)[C@H](C)NC(=O)[C@@H]1CCCN1C(=O)[C@@H](NC(=O)[C@H](Cc1c[nH]cn1)NC(=O)[C@@H](NC(=O)[C@H](CC(C)C)NC(=O)CC(C)C)[C@@H](C)O)C(c1ccccc1)c1ccccc1)[C@@H](C)CC)C(=O)N(C)[C@@H](Cc1ccccc1)C(N)=O
B2: Isovaleric Acid-E-T-H-[Dpa]-P-S-I-[(D)Lys]-[bhPhe]-[Lys(Ahx_Palm)]-NH2 (peptide)
peptide: Isovaleryl-ETH[Dip]PSI[dK][β3hF]K([Ahx-Palmitoyl])-NH2
SMILES: CCCCCCCCCCCCCCCC(=O)NCCCCCC(=O)NCCCC[C@H](NC(=O)C[C@H](Cc1ccccc1)NC(=O)[C@@H](CCCCN)NC(=O)[C@@H](NC(=O)[C@H](CO)NC(=O)[C@@H]1CCCN1C(=O)[C@@H](NC(=O)[C@H](Cc1c[nH]cn1)NC(=O)[C@@H](NC(=O)[C@H](CCC(=O)O)NC(=O)CC(C)C)[C@@H](C)O)C(c1ccccc1)c1ccccc1)[C@@H](C)CC)C(N)=O
B3: Isovaleric Acid-E-T-H-[Dpa]-P-A-I-[Lys(Ac)]-NH2 (peptide)
peptide: Isovaleryl-ETH[Dip]PAIK(Ac)-NH2
SMILES: CC[C@H](C)[C@H](NC(=O)[C@H](C)NC(=O)[C@@H]1CCCN1C(=O)[C@@H](NC(=O)[C@H](Cc1c[nH]cn1)NC(=O)[C@@H](NC(=O)[C@H](CCC(=O)O)NC(=O)CC(C)C)[C@@H](C)O)C(c1ccccc1)c1ccccc1)C(=O)N[C@@H](CCCCNC(C)=O)C(N)=O
B4: Isovaleric Acid-E-T-H-[Dpa]-P-A-[Lys(Ac)]-NH2 (peptide)
peptide: Isovaleryl-ETH[Dip]PAK(Ac)-NH2
SMILES: CC(=O)NCCCC[C@H](NC(=O)[C@H](C)NC(=O)[C@@H]1CCCN1C(=O)[C@@H](NC(=O)[C@H](Cc1c[nH]cn1)NC(=O)[C@@H](NC(=O)[C@H](CCC(=O)O)NC(=O)CC(C)C)[C@@H](C)O)C(c1ccccc1)c1ccccc1)C(N)=O
B5: Isovaleric Acid-E-T-H-[Dpa]-P-A-I-[Lys(Ahx_Palm)]-[bhPhe]-NH2 (peptide)
peptide: Isovaleryl-ETH[Dip]PAIK([Ahx-Palmitoyl])[β3hF]-NH2
SMILES: CCCCCCCCCCCCCCCC(=O)NCCCCCC(=O)NCCCC[C@H](NC(=O)[C@@H](NC(=O)[C@H](C)NC(=O)[C@@H]1CCCN1C(=O)[C@@H](NC(=O)[C@H](Cc1c[nH]cn1)NC(=O)[C@@H](NC(=O)[C@H](CCC(=O)O)NC(=O)CC(C)C)[C@@H](C)O)C(c1ccccc1)c1ccccc1)[C@@H](C)CC)C(=O)N[C@H](CC(N)=O)Cc1ccccc1
B6: Isovaleric Acid-L-T-H-[Dpa]-P-L-I-[Lys(Ahx_Palm)]-[(Me)Phe]-NH2 (peptide)
peptide: Isovaleryl-LTH[Dip]PLIK([Ahx-Palmitoyl])[NMeF]-NH2
SMILES: CCCCCCCCCCCCCCCC(=O)NCCCCCC(=O)NCCCC[C@H](NC(=O)[C@@H](NC(=O)[C@H](CC(C)C)NC(=O)[C@@H]1CCCN1C(=O)[C@@H](NC(=O)[C@H](Cc1c[nH]cn1)NC(=O)[C@@H](NC(=O)[C@H](CC(C)C)NC(=O)CC(C)C)[C@@H](C)O)C(c1ccccc1)c1ccccc1)[C@@H](C)CC)C(=O)N(C)[C@@H](Cc1ccccc1)C(N)=O
B7: Isovaleric Acid-E-T-H-[Dpa]-[ButanoicP]-[bhPhe]-[Lys(Ahx_Palm)]-NH2 (peptide)
peptide: Isovaleryl-ETH[Dip][ButanoicP][β3hF]K([Ahx-Palmitoyl])-NH2
SMILES: CCCCCCCCCCCCCCCC(=O)NCCCCCC(=O)NCCCC[C@H](NC(=O)C[C@H](Cc1ccccc1)NC(=O)CCC[C@@H]1CCCN1C(=O)[C@@H](NC(=O)[C@H](Cc1c[nH]cn1)NC(=O)[C@@H](NC(=O)[C@H](CCC(=O)O)NC(=O)CC(C)C)[C@@H](C)O)C(c1ccccc1)c1ccccc1)C(N)=O
B8: Isovaleric Acid-E-T-H-[Dpa]-P-L-I-[(D)Lys]-[bhPhe]-[Lys(Ahx_Palm)]-[(D)Lys]-L-NH2 (peptide)
peptide: Isovaleryl-ETH[Dip]PLI[dK][β3hF]K([Ahx-Palmitoyl])[dK]L-NH2
SMILES: CCCCCCCCCCCCCCCC(=O)NCCCCCC(=O)NCCCC[C@H](NC(=O)C[C@H](Cc1ccccc1)NC(=O)[C@@H](CCCCN)NC(=O)[C@@H](NC(=O)[C@H](CC(C)C)NC(=O)[C@@H]1CCCN1C(=O)[C@@H](NC(=O)[C@H](Cc1c[nH]cn1)NC(=O)[C@@H](NC(=O)[C@H](CCC(=O)O)NC(=O)CC(C)C)[C@@H](C)O)C(c1ccccc1)c1ccccc1)[C@@H](C)CC)C(=O)N[C@H](CCCCN)C(=O)N[C@@H](CC(C)C)C(N)=O
B9: Isovaleric Acid-E-T-H-[Dpa]-P-[t-BuGly]-I-[Lys(Ahx_Palm)]-[bhPhe]-NH2 (peptide)
peptide: Isovaleryl-ETH[Dip]P[Tle]IK([Ahx-Palmitoyl])[β3hF]-NH2
SMILES: CCCCCCCCCCCCCCCC(=O)NCCCCCC(=O)NCCCC[C@H](NC(=O)[C@@H](NC(=O)[C@@H](NC(=O)[C@@H]1CCCN1C(=O)[C@@H](NC(=O)[C@H](Cc1c[nH]cn1)NC(=O)[C@@H](NC(=O)[C@H](CCC(=O)O)NC(=O)CC(C)C)[C@@H](C)O)C(c1ccccc1)c1ccccc1)C(C)(C)C)[C@@H](C)CC)C(=O)N[C@H](CC(N)=O)Cc1ccccc1
B10: Isovaleric Acid-E-T-H-[Dpa]-P-I-[(D)Lys]-[bhPhe]-[Lys(Ahx_Palm)]-NH2 (peptide)
peptide: Isovaleryl-ETH[Dip]PI[dK][β3hF]K([Ahx-Palmitoyl])-NH2
SMILES: CCCCCCCCCCCCCCCC(=O)NCCCCCC(=O)NCCCC[C@H](NC(=O)C[C@H](Cc1ccccc1)NC(=O)[C@@H](CCCCN)NC(=O)[C@@H](NC(=O)[C@@H]1CCCN1C(=O)[C@@H](NC(=O)[C@H](Cc1c[nH]cn1)NC(=O)[C@@H](NC(=O)[C@H](CCC(=O)O)NC(=O)CC(C)C)[C@@H](C)O)C(c1ccccc1)c1ccccc1)[C@@H](C)CC)C(N)=O
B11: Isovaleric Acid-[(D)Arg]-T-H-[Dpa]-P-A-I-[Lys(1PEG2_1PEG2_Ahx_C18_Diacid)]-[bhPhe]-[(D)Lys]-NH2 (peptide)
peptide: Isovaleryl-[dR]TH[Dip]PAIK([AEEA-AEEA-Ahx-C18 diacid])[β3hF][dK]-NH2
SMILES: CC[C@H](C)[C@H](NC(=O)[C@H](C)NC(=O)[C@@H]1CCCN1C(=O)[C@@H](NC(=O)[C@H](Cc1c[nH]cn1)NC(=O)[C@@H](NC(=O)[C@@H](CCCNC(=N)N)NC(=O)CC(C)C)[C@@H](C)O)C(c1ccccc1)c1ccccc1)C(=O)N[C@@H](CCCCNC(=O)COCCOCCNC(=O)COCCOCCNC(=O)CCCCCNC(=O)CCCCCCCCCCCCCCCCC(=O)O)C(=O)N[C@H](CC(=O)N[C@H](CCCCN)C(N)=O)Cc1ccccc1
B12: Isovaleric Acid-R-T-H-[Dpa]-P-A-I-[Lys(1PEG2_1PEG2_Ahx_C18_Diacid)]-[bhPhe]-[(D)Lys]-NH2 (peptide)
peptide: Isovaleryl-RTH[Dip]PAIK([AEEA-AEEA-Ahx-C18 diacid])[β3hF][dK]-NH2
SMILES: CC[C@H](C)[C@H](NC(=O)[C@H](C)NC(=O)[C@@H]1CCCN1C(=O)[C@@H](NC(=O)[C@H](Cc1c[nH]cn1)NC(=O)[C@@H](NC(=O)[C@H](CCCNC(=N)N)NC(=O)CC(C)C)[C@@H](C)O)C(c1ccccc1)c1ccccc1)C(=O)N[C@@H](CCCCNC(=O)COCCOCCNC(=O)COCCOCCNC(=O)CCCCCNC(=O)CCCCCCCCCCCCCCCCC(=O)O)C(=O)N[C@H](CC(=O)N[C@H](CCCCN)C(N)=O)Cc1ccccc1

Molecular target: T1, human ferroportin (SLC40A1) fused in …
Assay: cell-based or functional assay

Row | Binder | FPN EC50 [nM]
1 | Isovaleryl-ETH[Dip]P[(n-hexyl)Gly]IK([Ahx-Palmitoyl])[β3hF]-NH2 [Isovaleric Acid-E-T-H-[Dpa]-P-[(n-hexyl)Gly]-I-[Lys(Ahx_Palm)]-[bhPhe]-NH2] | 427
2 | Isovaleryl-LTH[Dip]P[(Me)Leu]IK([Ahx-Palmitoyl])L-NH2 [Isovaleric Acid-L-T-H-[Dpa]-P-[(Me)Leu]-I-[Lys(Ahx_Palm)]-L-NH2] | 2760
3 | XETHXPX (N-term Isovaleric Acid; Dpa4; Lys(Ac)6; C-term NH2) [Isovaleric Acid-E-T-H-[Dpa]-P-[Lys(Ac)]-NH2] | 8410
4 | B1 | 1750
5 | Isovaleryl-ETH[Dip]PAIK([AEEA-AEEA-Ahx-C18 diacid])-NH2 [Isovaleric Acid-E-T-H-[Dpa]-P-A-I-[Lys(1Peg2_1Peg2_Ahx_C18_Diacid)]-NH2] | 593
6 | B2 | 46.3
7 | B3 | 1040
8 | Isovaleryl-LTH[Dip]PLIK([Ahx-Palmitoyl])[(Me)Leu]-NH2 [Isovaleric Acid-L-T-H-[Dpa]-P-L-I-[Lys(Ahx_Palm)]-[(Me)Leu]-NH2] | 287
9 | B4 | 35700
10 | B5 | 31.9
11 | Isovaleryl-ETH[Dip]PAI[dK]K(Ac)-NH2 [Isovaleric Acid-E-T-H-[Dpa]-P-A-I-[(D)Lys]-[Lys(Ac)]-NH2] | 814
12 | B6 | 764
13 | B7 | 71.2
14 | Isovaleryl-LTH[Dip]P[(Me)Leu]IK([Ahx-Palmitoyl])[NMeF]-NH2 [Isovaleric Acid-L-T-H-[Dpa]-P-[(Me)Leu]-I-[Lys(Ahx_Palm)]-[(Me)Phe]-NH2] | 2290
15 | Isovaleryl-LTH[Dip]PAIK([AEEA-AEEA-Ahx-C18 diacid])[β3hF][dK]-NH2 [Isovaleric Acid-L-T-H-[Dpa]-P-A-I-[Lys(1PEG2_1PEG2_Ahx_C18_Diacid)]-[bhPhe]-[(D)Lys]-NH2] | 65.7
16 | B8 | 4.5
17 | B9 | 40.3
18 | B10 | 22.9
19 | B11 | 732
20 | B12 | 48.5
21 | Isovaleryl-LTH[Dip]PAIK([Ahx-Palmitoyl])[(Me)Leu]-NH2 [Isovaleric Acid-L-T-H-[Dpa]-P-A-I-[Lys(Ahx_Palm)]-[(Me)Leu]-NH2] | 508
22 | Isovaleryl-ETH[Dip]PLIK([Ahx-Palmitoyl])[NMeF]-NH2 [Isovaleric Acid-E-T-H-[Dpa]-P-L-I-[Lys(Ahx_Palm)]-[(Me)Phe]-NH2] | 27.2
